Publication PMC3785227

Biological target: stripped core gp120 (HIV strain YU2), displayed on yeast (HIV-1 strain YU2)
Experiment: flow cytometry on cells

| Substance | Kd |
| --- | --- |
| b13, non-neutralizing CD4 binding site-directed anti-gp120 antibody | 0.9 nM |
| b12, broadly neutralizing anti-gp120 antibody against the CD4 binding site | 0.041 nM |
